Blank lines part the entries; values can stand above or below the binder they belong to.
Target: human CYP2D6 (human) (UniProt P10635)
Chain of UniProt P10635 (P10635 whole entry): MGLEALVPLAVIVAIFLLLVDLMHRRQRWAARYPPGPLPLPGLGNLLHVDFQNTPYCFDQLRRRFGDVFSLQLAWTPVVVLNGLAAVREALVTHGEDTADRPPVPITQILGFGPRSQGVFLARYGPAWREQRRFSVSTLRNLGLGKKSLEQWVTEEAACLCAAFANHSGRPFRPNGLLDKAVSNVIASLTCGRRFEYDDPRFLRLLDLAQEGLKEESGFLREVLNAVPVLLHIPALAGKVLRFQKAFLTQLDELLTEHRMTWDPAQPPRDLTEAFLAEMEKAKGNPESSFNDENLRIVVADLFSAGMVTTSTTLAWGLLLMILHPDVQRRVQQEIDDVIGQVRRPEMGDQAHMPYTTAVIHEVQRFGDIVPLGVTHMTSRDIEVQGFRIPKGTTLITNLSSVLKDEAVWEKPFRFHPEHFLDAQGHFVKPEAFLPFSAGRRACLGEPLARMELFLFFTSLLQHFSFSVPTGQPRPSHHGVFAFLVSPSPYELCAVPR

- production of 4-hydroxypropranolol from propranolol by CYP2D6 in co-expressing enzyme bags (SAN308), against the CYP2D6 control strain SAN300: 2.8 fold
- production of 5-hydroxypropranolol from propranolol by CYP2D6 in co-expressing enzyme bags (SAN308), against the CYP2D6 control strain SAN300: 5.8 fold
B1: human UGT1A9 (enzyme)
chain: GKLLVVPMDGSHWFTMRSVVEKLILRGHEVVVVMPEVSWQLGRSLNCTVKTYSTSYTLEDLDREFKAFAHAQWKAQVRSIYSLLMGSYNDIFDLFFSNCRSLFKDKKLVEYLKESSFDAVFLDPFDNCGLIVAKYFSLPSVVFARGILCHYLEEGAQCPAPLSYVPRILLGFSDAMTFKERVRNHIMHLEEHLLCHRFFKNALEIASEILQTPVTEYDLYSHTSIWLLRTDFVLDYPKPVMPNMIFIGGINCHQGKPLPMEFEAYINASGEHGIVVFSLGSMVSEIPEKKAMAIADALGKIPQTVLWRYTGTRPSNLANNTILVKWLPQNDLLGHPMTRAFITHAGSHGVYESICNGVPMVMMPLFGDQMDNAKRMETKGAGVTLNVLEMTSEDLENALKAVINDKSYKENIMRLSSLHKDRPVEPLDLAVFWVEFVMRHKGAPHLRPAAHDLTWYQYHSLDVIGFLLAVVLTVAFITFKCCAYGYRKCLGKKGRVKKAHKSKTH

- production of 4-hydroxypropranolol from propranolol by CYP2D6 in co-expressing enzyme bags (SAN306), against the CYP2D6 control strain SAN300: 3.3 fold
- production of 5-hydroxypropranolol from propranolol by CYP2D6 in co-expressing enzyme bags (SAN306), against the CYP2D6 control strain SAN300: 8.4 fold
B2: human UGT1A7 (enzyme)
chain: GKLLVVPMDGSHWFTMQSVVEKLILRGHEVVVVMPEVSWQLGRSLNCTVKTYSTSYTLEDQDREFMVFADARWTAPLRSAFSLLTSSSNGIFDLFFSNCRSLFNDRKLVEYLKESCFDAVFLDPFDACGLIVAKYFSLPSVVFARGIFCHYLEEGAQCPAPLSYVPRLLLGFSDAMTFKERVWNHIMHLEEHLFCPYFFKNVLEIASEILQTPVTAYDLYSHTSIWLLRTDFVLEYPKPVMPNMIFIGGINCHQGKPVPMEFEAYINASGEHGIVVFSLGSMVSEIPEKKAMAIADALGKIPQTVLWRYTGTRPSNLANNTILVKWLPQNDLLGHPMTRAFITHAGSHGVYESICNGVPMVMMPLFGDQMDNAKRMETKGAGVTLNVLEMTSEDLENALKAVINDKSYKENIMRLSSLHKDRPVEPLDLAVFWVEFVMRHKGAPHLRPAAHDLTWYQYHSLDVIGFLLAVVLTVAFITFKCCAYGYRKCLGKKGRVKKAHKSKTH

- production of 4-hydroxypropranolol from propranolol by CYP2D6 in co-expressing enzyme bags (SAN307), against the CYP2D6 control strain SAN300: 2.1 fold
- production of 5-hydroxypropranolol from propranolol by CYP2D6 in co-expressing enzyme bags (SAN307), against the CYP2D6 control strain SAN300: 4.8 fold
B3: human UGT1A8 (enzyme)
chain: GKLLVVPMDGSHWFTMQSVVEKLILRGHEVVVVMPEVSWQLGKSLNCTVKTYSTSYTLEDLDREFMDFADAQWKAQVRSLFSLFLSSSNGFFNLFFSHCRSLFNDRKLVEYLKESSFDAVFLDPFDACGLIVAKYFSLPSVVFARGIACHYLEEGAQCPAPLSYVPRILLGFSDAMTFKERVRNHIMHLEEHLFCQYFSKNALEIASEILQTPVTAYDLYSHTSIWLLRTDFVLDYPKPVMPNMIFIGGINCHQGKPLPMEFEAYINASGEHGIVVFSLGSMVSEIPEKKAMAIADALGKIPQTVLWRYTGTRPSNLANNTILVKWLPQNDLLGHPMTRAFITHAGSHGVYESICNGVPMVMMPLFGDQMDNAKRMETKGAGVTLNVLEMTSEDLENALKAVINDKSYKENIMRLSSLHKDRPVEPLDLAVFWVEFVMRHKGAPHLRPAAHDLTWYQYHSLDVIGFLLAVVLTVAFITFKCCAYGYRKCLGKKGRVKKAHKSKTH
